The values that follow come from publication PMC2701922.

Substrate in data set [1]: NC(=O)c1ccc[n+]([C@@H]2O[C@H](COP(=O)(O)OP(=O)(O)OC[C@H]3O[C@@H](n4cnc5c(N)ncnc54)[C@H](O)[C@@H]3O)[C@@H](O)[C@H]2O)c1
Description: purified protein. Type of data set: biochemical, Thermotoga maritima. Particulars: 50-1000 μM NAD+, with 6-phosphogluconate, 80°C, varied: cofactor.

Substrate in data set [2]: NC(=O)c1ccc[n+]([C@@H]2O[C@H](COP(=O)(O)OP(=O)(O)OC[C@H]3O[C@@H](n4cnc5c(N)ncnc54)[C@H](OP(=O)(O)O)[C@@H]3O)[C@@H](O)[C@H]2O)c1
Description: purified protein. Type of data set: biochemical, Thermotoga maritima. Particulars: 2 mM 6-phosphogluconate, 50 mM Hepes pH 7.5, 5 mM Mg2+, 0.5 mM Mn2+, 80°C, varied: cofactor.

B1: T. maritima 6PGDH (Thermotoga maritima MSB8) (protein)
chain: MKSHIGLIGLAVMGQNLALNIARKGYKVSVYNRTAQRTEEFVKNRVTNEEIEPHYDIESFVKSLERPRKIILMVKAGKPVDDTISQLLPHLEPGDLIIDGGNSHYMDTERRFKELSEKGILFLGMGVSGGEYGALHGPSLMPGGSREAYNLVEEILLEIAAKTEDGPCCTYVGERSAGHFVKMVHNGIEYAIMQAIAEVYHIMRDVLSLSSEEMSSIFEEWNRGELSSFLVEITYKILRKKDEETGKPMVDVILDKAEQKGTGKWTSQAALDLGIPTPSINLAVVERVISHFKDIRTRLSKLYNKRRSATQGSEEFLRDLRNSLFFAMFMAFSQGMWLIAEASKEFGYGVSLSEVLRIWKGGCIIRAKLIDTLRRYISNENAYLLENEEVMNLLKGKIDSLKNILKASIENEIPVPVLSSSYNYFMSLTEERLPANLIQAQRDFFGAHTFERVDREGVFHINWEEGEIG
notes: full length, expressed in E. coli as CBM-intein-6PGDH fusion, tag removed by intein self-cleavage; 53 kDa
In the case of B1, the figures for the Michaelis constant (Km) in data set [1] and in data set [2] were 380 µM and 10 µM, respectively.
